± gives the standard error. This sample holds only a part of the variants without activity.
B1: glmS ribozyme (parent)
chain: AUAAAAGCGCCAGAACUACAGAAAUGUAGUUGACGAGGAGGAGGUUUAUCGAAUUUUCGGCGGAUGCCUCCAAA

Tests used:
Settings in all cases: with glucosamine-6-phosphate
[1] = variants of: B1; assay: self-cleavage kobs at 40 uM GlcN6P; higher = faster cleavage; RNA array
In short: (§1)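 E. coli RNA polymerase transcribed barcoded ribozyme variants in situ on sequenced MiSeq chips, which were tracked via a hybridised Cy3 probe at 37 °C. Tiles were imaged over ~14 h after glucosamine-6-phosphate (40 μM to 10 mM) in HEPES/KCl/Mg(OAc)2 buffer was flowed in. Normalised per-tile medians were fit to one- or two-exponential decays for kobs, and kcat and KM came from weighted Michaelis–Menten fits.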

[2] = variants of: B1; assay: self-cleavage kobs at 640 uM GlcN6P; higher = faster cleavage; RNA array
In short: as §1

[3] = variants of: B1; assay: self-cleavage kobs at 2500 uM GlcN6P; higher = faster cleavage; RNA array
In short: as §1

[4] = variants of: B1; assay: self-cleavage kobs at 10000 uM GlcN6P; higher = faster cleavage; RNA array
In short: as §1

[5] = variants of: B1; assay: self-cleavage kobs at 160 uM GlcN6P; higher = faster cleavage; RNA array
In short: as §1

Row | Variant | self-cleavage kobs at 40 uM GlcN6P [1] [s⁻¹] | self-cleavage kobs at 640 uM GlcN6P [2] [s⁻¹] | self-cleavage kobs at 2500 uM GlcN6P [3] [s⁻¹] | self-cleavage kobs at 10000 uM GlcN6P [4] [s⁻¹] | self-cleavage kobs at 160 uM GlcN6P [5] [s⁻¹]
1 | C10G G43U U47G C61A | < 1e-05 | < 1e-05 | < 1e-05 |  | 
2 | C10U A36C U56C | < 1e-05 |  |  |  | 
3 | G9A G13U C50G U57A | 0.000665 ± 0.00023 |  |  | 9.79e-05 ± 2e-05 | 
4 | G9C C10A U56A | < 1e-05 | < 1e-05 | < 1e-05 |  | 
5 | C10G G32U A36C G40U G63U | < 1e-05 |  | < 1e-05 | < 1e-05 | 
6 | C8U G43A | < 1e-05 |  |  |  | < 1e-05
7 | C10U A12U A33U A53G C58U U69G | 9.07e-05 ± 2.5e-05 | 0.000216 ± 5.1e-05 | 0.000132 ± 4.1e-05 | 6.22e-05 ± 1.8e-05 | 0.000159 ± 3.3e-05
8 | G9U G43C U46G C67A | < 1e-05 |  |  |  | 
9 | G9C C34A A42U G43A | < 1e-05 |  |  |  | 
10 | C10U A42U | < 1e-05 | < 1e-05 | < 1e-05 | < 1e-05 | < 1e-05
11 | G9U C11A A36G | < 1e-05 |  |  |  | 
12 | C10A U46G C68G | 0.000169 ± 4.8e-05 |  |  | 6.66e-05 ± 2.2e-05 | 
13 | C10A G38U | < 1e-05 | < 1e-05 |  |  | < 1e-05
14 | C10A G32A U47A | < 1e-05 |  |  |  | 
15 | G9C G40A C50A | < 1e-05 |  |  | < 1e-05 | 
16 | C10U A15U G43A A52G | < 1e-05 |  |  | < 1e-05 | 
17 | G9A G29C | < 1e-05 | < 1e-05 |  | < 1e-05 | < 1e-05
18 | G9C U45C U47A C67G | < 1e-05 |  |  |  | 
19 | C8U G63C | < 1e-05 | < 1e-05 | < 1e-05 | < 1e-05 | < 1e-05
20 | C10A G38C G60U C71U | < 1e-05 |  |  |  | 
21 | C8U U47C | < 1e-05 | < 1e-05 | < 1e-05 | < 1e-05 | < 1e-05
22 | C10G C68A | < 1e-05 |  |  |  | 
23 | C8U G51A A52G G63C | < 1e-05 |  |  |  | 
24 | C10A U46G | < 1e-05 | < 1e-05 | < 1e-05 |  | < 1e-05
25 | C10G G37A G66U U69G C71A | < 1e-05 |  |  |  | < 1e-05
26 | G9A G41U U56G | < 1e-05 | < 1e-05 |  | < 1e-05 | < 1e-05

Row | Variant | self-cleavage kobs at 40 uM GlcN6P [1] [s⁻¹] | self-cleavage kobs at 640 uM GlcN6P [2] [s⁻¹] | self-cleavage kobs at 2500 uM GlcN6P [3] [s⁻¹] | self-cleavage kobs at 10000 uM GlcN6P [4] [s⁻¹] | self-cleavage kobs at 160 uM GlcN6P [5] [s⁻¹]
27 | G9A C50A U56C C67A | < 1e-05 | < 1e-05 | < 1e-05 |  | 
28 | C10G C16U U49C | < 1e-05 | < 1e-05 |  |  | 
29 | C8U U30G | < 1e-05 | < 1e-05 |  | < 1e-05 | < 1e-05
30 | G9C G29U U69A | < 1e-05 | < 1e-05 | < 1e-05 | < 1e-05 | < 1e-05
31 | G9U A33C U69G | < 1e-05 |  |  |  | 
32 | G9U A33G | < 1e-05 | < 1e-05 | < 1e-05 |  | < 1e-05
33 | G9A U65C | < 1e-05 | < 1e-05 | < 1e-05 | < 1e-05 | < 1e-05
34 | G9C G51C | < 1e-05 | < 1e-05 | < 1e-05 | < 1e-05 | < 1e-05
35 | G9A U55C C71A | < 1e-05 | < 1e-05 | < 1e-05 |  | 
36 | C10A A48G U49G | < 1e-05 | < 1e-05 | < 1e-05 | < 1e-05 | < 1e-05
37 | G9A G38C | < 1e-05 | < 1e-05 |  |  | < 1e-05
38 | G9A G38A | < 1e-05 |  |  | < 1e-05 | 
39 | G9C C16U U47G C61U | < 1e-05 |  |  | < 1e-05 | 
40 | C10A G59A | < 1e-05 | < 1e-05 |  |  | 
41 | G9U G29C A33U A64U | < 1e-05 | < 1e-05 | < 1e-05 | < 1e-05 | 
42 | C10A G43A | < 1e-05 |  |  |  | 
43 | C10A G43U | < 1e-05 |  |  | < 1e-05 | < 1e-05
44 | C10A A33C | < 1e-05 | < 1e-05 | < 1e-05 | < 1e-05 | < 1e-05
45 | G9U A15C U47C | < 1e-05 |  |  |  | 
46 | G9A G44A C67A | < 1e-05 |  |  |  | 
47 | G9C C67G | < 1e-05 | < 1e-05 | < 1e-05 | < 1e-05 | < 1e-05
48 | C10A U31C | < 1e-05 | < 1e-05 |  | < 1e-05 | 
49 | G9C G13U G41U G63U | < 1e-05 |  |  | < 1e-05 | 
50 | G9C A33U A52C | < 1e-05 |  |  |  | 
51 | C10A A15U C16U C34U | < 1e-05 |  |  |  | 
52 | G9C G32C | < 1e-05 | < 1e-05 | < 1e-05 | < 1e-05 | < 1e-05

Row | Variant | self-cleavage kobs at 40 uM GlcN6P [1] [s⁻¹] | self-cleavage kobs at 640 uM GlcN6P [2] [s⁻¹] | self-cleavage kobs at 2500 uM GlcN6P [3] [s⁻¹] | self-cleavage kobs at 10000 uM GlcN6P [4] [s⁻¹] | self-cleavage kobs at 160 uM GlcN6P [5] [s⁻¹]
53 | C8U U31G G62U | < 1e-05 |  |  |  | 
54 | G9U G59U | < 1e-05 |  |  | < 1e-05 | < 1e-05
55 | C10A A15U | < 1e-05 | < 1e-05 |  |  | 
56 | G9C U49A | < 1e-05 | < 1e-05 | < 1e-05 | < 1e-05 | 
57 | G9A A14C G37C G38U U49C U69A | < 1e-05 |  |  |  | 
58 | C10G U65A | < 1e-05 | < 1e-05 |  | < 1e-05 | 
59 | C10G U65G | < 1e-05 | < 1e-05 | < 1e-05 | < 1e-05 | < 1e-05
60 | G9A A33C | < 1e-05 | < 1e-05 | < 1e-05 | < 1e-05 | < 1e-05
61 | C10A A36G G40C U47G | < 1e-05 |  |  |  | 
62 | G9A A14G | < 1e-05 |  |  | 5.01e-05 ± 1.3e-05 | < 1e-05
63 | C8U C16U A52G | < 1e-05 |  |  |  | 
64 | C10U C34A C50G U65A | 8.28e-05 ± 3e-05 |  | 6.81e-05 ± 2.9e-05 | 0.000129 ± 2.8e-05 | 
65 | C10G C61U C71A | < 1e-05 |  |  |  | 
66 | C10G U47G C70U C71G | < 1e-05 | 0.00148 ± 0.00064 |  |  | 
67 | G9A C71G | < 1e-05 | < 1e-05 | < 1e-05 | < 1e-05 | < 1e-05
68 | C10G U30C A33C U55A | < 1e-05 |  |  | < 1e-05 | 
69 | C10U C16G G35C A42U U57G G59A | < 1e-05 |  |  |  | 
70 | G9A A14C A48C | < 1e-05 |  |  |  | 
71 | G9U U49G | < 1e-05 | < 1e-05 |  | < 1e-05 | < 1e-05
72 | G9C U65A | < 1e-05 |  | < 1e-05 |  | 
73 | C8U G38U A39C C58A | < 1e-05 |  |  |  | 
74 | C10G G62A | < 1e-05 | < 1e-05 |  | < 1e-05 | < 1e-05
75 | G9U G43U | < 1e-05 | < 1e-05 | < 1e-05 | < 1e-05 | 
76 | G9A G51A | < 1e-05 |  |  | < 1e-05 | 
77 | C10A G32C | < 1e-05 | < 1e-05 | < 1e-05 |  | 
78 | C10G C16U | < 1e-05 |  |  |  | < 1e-05

Row | Variant | self-cleavage kobs at 40 uM GlcN6P [1] [s⁻¹] | self-cleavage kobs at 640 uM GlcN6P [2] [s⁻¹] | self-cleavage kobs at 2500 uM GlcN6P [3] [s⁻¹] | self-cleavage kobs at 10000 uM GlcN6P [4] [s⁻¹] | self-cleavage kobs at 160 uM GlcN6P [5] [s⁻¹]
79 | C10U C11A | < 1e-05 |  |  |  | < 1e-05
80 | C10G A12G G59U C61G | < 1e-05 |  |  |  | 
81 | C10A A52C | < 1e-05 | < 1e-05 | < 1e-05 | < 1e-05 | 
82 | C10U A15G G40U | < 1e-05 |  |  | < 1e-05 | 
83 | C8U G43A U56C | < 1e-05 |  |  | < 1e-05 | 
84 | C10A G29C U56C A64G | < 1e-05 |  |  |  | 
85 | G9C C10U G44A U54A C71G | < 1e-05 |  |  |  | 
86 | C10G A39C U45A U54G G62C | < 1e-05 |  |  | < 1e-05 | 
87 | C8U G35A G59U | < 1e-05 |  |  |  | 
88 | G9A G13A | < 1e-05 | < 1e-05 | < 1e-05 |  | < 1e-05
89 | C10G C11G C68U | < 1e-05 |  |  |  | 
90 | C8U G9A C50G C67U | 6.37e-05 ± 1.7e-05 |  | 0.000169 ± 4.6e-05 | 6.88e-05 ± 1.6e-05 | 
91 | G9U C16U G43U A53U | < 1e-05 |  |  | < 1e-05 | 
92 | C10A A48U A52C A64G | < 1e-05 |  |  |  | 
93 | C10A G32A G51A | < 1e-05 |  |  |  | 
94 | C10A C34G | < 1e-05 | < 1e-05 | < 1e-05 | < 1e-05 | 
95 | G9U U30C A36C | < 1e-05 | < 1e-05 | < 1e-05 |  | 
96 | C10A C11U A33C U49G C67G | < 1e-05 |  | < 1e-05 |  | 
97 | C10G A33U C67G | < 1e-05 |  |  |  | 
98 | C10U G13A A39U G60U | < 1e-05 |  |  |  | 
99 | G9A G62U | < 1e-05 |  | < 1e-05 |  | < 1e-05
100 | G9A C50G U65G G66C C70G | 5.55e-05 ± 2.4e-05 |  |  | 4.91e-05 ± 1.6e-05 | 
101 | C10A A39U U49C | < 1e-05 |  |  | < 1e-05 | 

Reference: the supplement of paper PMC7125110
